Measurements: article PMC3713010, “Sox2 Transcriptionally Regulates Pqbp1, an Intellectual Disability-Microcephaly Causative Gene, in Neural Stem Progenitor Cells”

T1: Oct6 DNA-binding domain (BD-Oct6) (Mus musculus (B6), UniProt P21952 317-416)
T1 sequence: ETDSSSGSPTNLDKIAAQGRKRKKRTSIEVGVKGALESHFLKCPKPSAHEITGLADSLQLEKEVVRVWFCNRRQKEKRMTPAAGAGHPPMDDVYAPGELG

T2: Brn2 DNA-binding domain (BD-Brn2) (Mus musculus (B6), UniProt P31360 336-435)
T2 sequence: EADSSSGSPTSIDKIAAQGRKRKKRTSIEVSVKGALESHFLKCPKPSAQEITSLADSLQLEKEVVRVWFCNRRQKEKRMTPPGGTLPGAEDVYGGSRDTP


Experiments:
Test in all cases: EMSA; 10% glycerol, 20 mM HEPES pH 7.8, 45 mM KCl, 10 mM NaCl, 1 mM EDTA, 1 mM DTT, 0.2 ug/uL BSA, 0.1% NP-40, 50 ng poly-dIdC; 20 ng each GST protein; room temperature 30 min (heterodimers 4 C); 6% PAGE 0.25x TBE
Details in all cases: protein: recombinant; tags: GST (N-terminal, pGEX-6P-1); label: 32P-dCTP fill-in of the 5' (dG)5 overhangs of both strands (Methods; control probes are given with GGG)
[1] = molecular target: T1, Oct6 DNA-binding domain (BD-Oct6)
How it was run: (§1)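 Transcription factor DNA-binding domains carrying a GST tag were expressed in E. coli BL21, purified on glutathione-sepharose and tested against annealed candidate cis-element oligonucleotides labelled with 32P-dCTP. Each reaction held 20 ng protein, 40,000–50,000 cpm probe and 50 ng poly-dIdC in HEPES/KCl glycerol buffer with BSA and detergent, incubated 30 min at room temperature, then run on 6% polyacrylamide in 0.25×TBE at 4°C. DNA binding was scored as the radioactivity of the band in the expected shift region, read on a phosphor imager.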

[2] = molecular target: T2, Brn2 DNA-binding domain (BD-Brn2)
How it was run: as §1

[3] = molecular target: Pax6 DNA-binding domain (BD-Pax6) (Mus musculus (B6), UniProt P63015 190-289)
Chain of Pax6 DNA-binding domain (BD-Pax6) (P63015 190-289): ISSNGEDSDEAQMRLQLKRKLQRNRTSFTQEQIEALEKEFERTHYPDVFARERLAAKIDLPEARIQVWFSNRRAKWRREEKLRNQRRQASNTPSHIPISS
How it was run: as §1

| Binder | binding result [1] | binding result [2] | binding result [3] |
| --- | --- | --- | --- |
| 109 (dsDNA) DNA 1: GGGGGCTTTTTTTTTTGTATGTGATTTGAGGCAGAGTCCCCC DNA 2: GGGGGACTCTGCCTCAAATCACATACAAAAAAAAAAGCCCCC | no binding | no binding | no binding |
| 111 (dsDNA) DNA 1: GGGGGTTCAACCTTTTGTTGTATCATTTAAAAAACATTCCCCC DNA 2: GGGGGAATGTTTTTTAAATGATACAACAAAAGGTTGAACCCCC | binds | binds | no binding |
| 107 (dsDNA) DNA 1: GGGGGACTAGTTTTCTATTACTACAAATCTCAACTCCCCC DNA 2: GGGGGAGTTGAGATTTGTAGTAATAGAAAACTAGTCCCCC | no binding | no binding | no binding |
| 10 (dsDNA) DNA 1: GGGGGACACACACACAAAGATTTATTTATTCATTTAATCCCCC DNA 2: GGGGGATTAAATGAATAAATAAATCTTTGTGTGTGTGTCCCCC | no binding | binds | no binding |
| 104 (dsDNA) DNA 1: GGGGGCACAATTTTTATAATATATAATTGTTTCATCAACCCCC DNA 2: GGGGGTTGATGAAACAATTATATATTATAAAAATTGTGCCCCC | binds | binds | binds |
| 105 (dsDNA) DNA 1: GGGGGATTTTTTAAAAAATTAGACTACCACAAATCAACTGTCCCCC DNA 2: GGGGGACAGTTGATTTGTGGTAGTCTAATTTTTTAAAAAATCCCCC | binds | binds | binds |
| 101 (dsDNA) DNA 1: GGGGGTGCCTCCTTTTGTGAGCTATTTATAATGCTAACCCCC DNA 2: GGGGGTTAGCATTATAAATAGCTCACAAAAGGAGGCACCCCC | binds | binds | no binding |
| 102a (dsDNA) DNA 1: GGGGGGGATCCCCACAATACAAAAAAAACAAAAACAAAACCCCCC DNA 2: GGGGGGTTTTGTTTTTGTTTTTTTTGTATTGTGGGGATCCCCCCC | no binding | no binding | no binding |
| 102b (dsDNA) DNA 1: GGGGGAAAACAAAACAAAACTGGATTTGGCGATTGTATCCCCC DNA 2: GGGGGATACAATCGCCAAATCCAGTTTTGTTTTGTTTTCCCCC | no binding | no binding | no binding |
| 100 (dsDNA) DNA 1: GGGGGCAACCAAAAAAAATGTATTTTACAAAAATCACAACCCCC DNA 2: GGGGGTTGTGATTTTTGTAAAATACATTTTTTTTGGTTGCCCCC | binds | no binding | binds |
| 113 (dsDNA) DNA 1: GGGGGACTAAGTCATTGTTTATTTCCGTGCTGTTCCCCC DNA 2: GGGGGAACAGCACGGAAATAAACAATGACTTAGTCCCCC | no binding | no binding | no binding |
| 1 (dsDNA) DNA 1: GGGGGAAAATAACCAAAATAAAAAGTGTACAATTCAGTGGCCCCCC DNA 2: GGGGGGCCACTGAATTGTACACTTTTTATTTTGGTTATTTTCCCCC | no binding | no binding | no binding |
| 2 (dsDNA) DNA 1: GGGGGGCCATAGAATTGTACTTCTGTCACCAGTTTTATTTTTTTATTTCCCCC DNA 2: GGGGGAAATAAAAAAATAAAACTGGTGACAGAAGTACAATTCTATGGCCCCCC | no binding | no binding | no binding |
| 9 (dsDNA) DNA 1: GGGGGTCCTGCCACTTGGGTTGCAGTGAGGACAATGAAATGAGCCCCC DNA 2: GGGGGCTCATTTCATTGTCCTCACTGCAACCCAAGTGGCAGGACCCCC | no binding | no binding | no binding |
| 106 (dsDNA) DNA 1: GGGGGGCTTCCCTAGAATTGGAGATACAAAGGGCTCTGCCCCC DNA 2: GGGGGCAGAGCCCTTTGTATCTCCAATTCTAGGGAAGCCCCCC | no binding | no binding | no binding |
| 102c (dsDNA) DNA 1: GGGGGATTTGGCGATTGTATTATAATTGTCTATCAGTCCCCC DNA 2: GGGGGACTGATAGACAATTATAATACAATCGCCAAATCCCCC | binds | binds | binds |
| 112 (dsDNA) DNA 1: GGGGGTGTGTTCATTTGTTTTTATTTTAGAAGGAGTCCCCC DNA 2: GGGGGACTCCTTCTAAAATAAAAACAAATGAACACACCCCC | binds | binds | no binding |
| 115 (dsDNA) DNA 1: GGGGGCTGGCCAGACAATGACGATATTTTTTTCCTTCACCCCCC DNA 2: GGGGGGTGAAGGAAAAAAATATCGTCATTGTCTGGCCAGCCCCC | no binding | no binding | no binding |
| 108 (dsDNA) DNA 1: GGGGGCATCTTATCGTTAATATATACGTTTGTTACATATACCCCC DNA 2: GGGGGTATATGTAACAAACGTATATATTAACGATAAGATGCCCCC | binds | binds | binds |
| 110 (dsDNA) DNA 1: GGGGGTTTATTTATTTGTTTTATTTCTATTTTTCTTGGTGACCCCC DNA 2: GGGGGTCACCAAGAAAAATAGAAATAAAACAAATAAATAAACCCCC | binds | no binding | no binding |
| 117 (dsDNA) DNA 1: GGGGGGAAAAACAAAGATTTAGTATAAACCCCC DNA 2: GGGGGTTTATACTAAATCTTTGTTTTTCCCCCC | no binding | no binding | no binding |
| 118 (dsDNA) DNA 1: GGGGGGACAAGGGTCAATTTGCTAGACAAAGATCTTCACCCCC DNA 2: GGGGGTGAAGATCTTTGTCTAGCAAATTGACCCTTGTCCCCCC | no binding | no binding | no binding |
| 11 (dsDNA) DNA 1: GGGGGGTGGGGTACAAAAATGGCCCTTTGTGATCAACTCCCCC DNA 2: GGGGGAGTTGATCACAAAGGGCCATTTTTGTACCCCACCCCCC | no binding | no binding | no binding |
| 116 (dsDNA) DNA 1: GGGGGAAGGCCAGACTAATCTACAAAGTGAGTTCCCCCC DNA 2: GGGGGGAACTCACTTTGTAGATTAGTCTGGCCTTCCCCC | no binding | no binding | no binding |
| 114 (dsDNA) DNA 1: GGGGGTGATTTTTGCAAAATTTTGTTTTGTTTCTTGAGCCCCC DNA 2: GGGGGCTCAAGAAACAAAACAAAATTTTGCAAAAATCACCCCC | no binding | no binding | no binding |
